Results reported in US20200062863A1 (CSL BEHRING, published 2020).

How the values were obtained:
Assay in all cases: Western blot of culture supernatant (non-reducing SDS-PAGE) probed with 3F7 mAb, anti-human IgG-FITC
[1] = molecular target: T1, W420R
T1 construct: also called Mu-FXII W420R mutant with C-terminal 8xHis-tag; mutant d)
T1 single chain: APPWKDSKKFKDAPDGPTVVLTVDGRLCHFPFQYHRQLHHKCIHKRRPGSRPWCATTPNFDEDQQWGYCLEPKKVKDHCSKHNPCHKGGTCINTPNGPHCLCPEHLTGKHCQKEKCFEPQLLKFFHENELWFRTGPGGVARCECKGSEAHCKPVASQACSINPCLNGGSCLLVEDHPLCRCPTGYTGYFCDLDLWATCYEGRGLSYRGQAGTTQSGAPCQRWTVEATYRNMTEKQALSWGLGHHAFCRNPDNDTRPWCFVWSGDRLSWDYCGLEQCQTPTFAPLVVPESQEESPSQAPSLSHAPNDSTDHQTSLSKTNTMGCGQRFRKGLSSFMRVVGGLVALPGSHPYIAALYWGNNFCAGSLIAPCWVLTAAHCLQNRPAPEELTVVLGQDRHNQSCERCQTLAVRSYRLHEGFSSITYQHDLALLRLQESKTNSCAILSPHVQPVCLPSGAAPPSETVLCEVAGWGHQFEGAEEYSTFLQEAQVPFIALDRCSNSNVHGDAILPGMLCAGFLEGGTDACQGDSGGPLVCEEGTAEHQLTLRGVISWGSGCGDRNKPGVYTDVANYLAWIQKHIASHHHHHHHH
Method: (§1) Proteins were then transferred electrophoretically onto nitrocellulose filters and blocked for 1 hour in 5% Milk powder in Tris-buffered saline with 0.05% Tween-20 (TTBS). Filters were then incubated for 1 hour with either 3F7 mAb or an anti-His mAb 3H3 (both at […] in TTBS with 5% Milk powder), washed thoroughly with TTBS, then incubated for a further hour with anti-human IgG-FITC or anti-mouse IgG-FITC, respectively (Millipore, USA; both at 0.25 mg/ml in TTBS with 5% Milk powder). Following further washing of membranes in TTBS, Ab-FITC bound proteins were visualized using a Typhoon variable mode analyzer (GE Healthcare, USA).

[2] = molecular target: T2, R427H
T2 construct: also called Mu-FXII R427H mutant with C-terminal 8xHis-tag; mutant e)
T2 single chain: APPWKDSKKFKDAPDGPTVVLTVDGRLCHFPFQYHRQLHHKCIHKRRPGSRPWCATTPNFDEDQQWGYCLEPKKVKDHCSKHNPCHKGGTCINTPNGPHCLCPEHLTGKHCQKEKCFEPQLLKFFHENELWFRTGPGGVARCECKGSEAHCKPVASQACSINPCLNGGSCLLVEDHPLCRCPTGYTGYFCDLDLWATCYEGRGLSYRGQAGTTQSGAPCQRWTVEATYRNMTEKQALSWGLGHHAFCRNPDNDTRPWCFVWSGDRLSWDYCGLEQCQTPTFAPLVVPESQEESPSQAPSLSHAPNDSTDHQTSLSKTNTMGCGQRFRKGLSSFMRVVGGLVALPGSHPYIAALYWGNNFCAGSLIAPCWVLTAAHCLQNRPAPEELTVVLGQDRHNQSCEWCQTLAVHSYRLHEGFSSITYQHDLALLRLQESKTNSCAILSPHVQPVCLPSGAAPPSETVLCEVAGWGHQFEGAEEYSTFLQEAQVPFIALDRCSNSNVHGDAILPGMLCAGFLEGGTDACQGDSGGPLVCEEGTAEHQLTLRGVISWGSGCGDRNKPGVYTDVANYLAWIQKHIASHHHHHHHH
Method: as §1

[3] = molecular target: T3, G472S
T3 construct: also called Mu-FXII G472S mutant with C-terminal 8xHis-tag; mutant k)
T3 single chain: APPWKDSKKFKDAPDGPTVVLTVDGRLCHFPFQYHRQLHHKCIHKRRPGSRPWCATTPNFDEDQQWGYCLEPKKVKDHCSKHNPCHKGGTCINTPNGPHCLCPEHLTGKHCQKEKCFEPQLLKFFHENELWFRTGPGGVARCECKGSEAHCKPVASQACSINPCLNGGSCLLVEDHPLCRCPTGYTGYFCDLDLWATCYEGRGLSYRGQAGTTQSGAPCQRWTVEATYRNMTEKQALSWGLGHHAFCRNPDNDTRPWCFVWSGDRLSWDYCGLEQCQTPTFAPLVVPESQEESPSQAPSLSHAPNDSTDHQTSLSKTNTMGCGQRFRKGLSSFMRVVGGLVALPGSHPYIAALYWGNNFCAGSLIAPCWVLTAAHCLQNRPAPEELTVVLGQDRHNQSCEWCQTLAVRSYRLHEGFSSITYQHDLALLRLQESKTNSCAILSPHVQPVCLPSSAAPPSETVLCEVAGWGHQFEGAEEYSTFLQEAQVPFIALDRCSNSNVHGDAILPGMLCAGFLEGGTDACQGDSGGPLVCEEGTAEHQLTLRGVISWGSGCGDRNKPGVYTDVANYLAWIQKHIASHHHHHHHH
Method: as §1

[4] = molecular target: T4, N376D
T4 construct: also called Mu-FXII N376D mutant with C-terminal 8xHis-tag; mutant a)
T4 single chain: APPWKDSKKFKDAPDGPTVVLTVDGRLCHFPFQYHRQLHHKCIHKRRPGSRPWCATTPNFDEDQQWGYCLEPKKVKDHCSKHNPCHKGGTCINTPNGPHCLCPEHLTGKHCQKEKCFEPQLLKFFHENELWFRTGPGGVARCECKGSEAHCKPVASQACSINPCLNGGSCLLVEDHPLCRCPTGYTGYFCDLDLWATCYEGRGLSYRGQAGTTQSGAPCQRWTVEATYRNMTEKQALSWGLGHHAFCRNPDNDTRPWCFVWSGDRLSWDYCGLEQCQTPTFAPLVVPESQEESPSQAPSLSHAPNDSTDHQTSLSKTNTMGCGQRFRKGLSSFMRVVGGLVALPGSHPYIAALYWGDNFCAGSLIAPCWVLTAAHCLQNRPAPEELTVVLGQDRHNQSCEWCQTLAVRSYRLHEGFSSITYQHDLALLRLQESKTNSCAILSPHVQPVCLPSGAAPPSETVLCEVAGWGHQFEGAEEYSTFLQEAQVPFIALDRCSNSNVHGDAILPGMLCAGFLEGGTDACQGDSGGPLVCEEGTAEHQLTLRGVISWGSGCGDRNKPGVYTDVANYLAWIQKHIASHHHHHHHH
Method: as §1

binding result [1]: binds
binding result [2]: binds
binding result [3]: binds
binding result [4]: binds
B1: monoclonal antibody 3F7 (fully human IgG4/lambda) (antibody, V domains shown)
VH: EVQLLESGGGLVQPGGSLRLSCAASGFTFSKYIMQWVRQAPGKGLEWVSGIRPSGGTTVYADSVKGRFTISRDNSKNTLYLQMNSLRAEDTAVYYCARALPRSGYLISPHYYYYALDVWGQGTTVTVSS
VL: QSELTQPPSASGTPGQRVTISCSGSSSNIGRNYVYWYQQVPGTAPKLLIYSNNQRPSGVPDRFSGSKSGTSASLVISGLRSEDEADYYCAAWDASLRGVFGGGTKLTVLG
notes: also called 3F7 mAb; MAb 3F7
